Results from article PMC10716038, “Talin and kindlin use integrin tail allostery and direct binding to activate integrins” (Nature Structural & Molecular Biology, 2023).
Several values for one entry are separate records, joined by “and”; a condition that tells them apart may be missing. Equal values may be shown once. No end group written: not given here.

What was measured:
Conditions in all cases: both partners purified
THD1 L400A = target: T1, THD1 L400A (UniProt P26039 1-405, L400A); assay: MST; apparent; THD1 or THD1 mutants titrated to 488–β3-CT in the presence of 30-40 µM KIND2; MST buffer
T1 construct: talin-1 (TLN1) head domain, residues 1-405, L400A; source: E. coli (DE3) Rosetta 2, purified (IMAC, SEC); not shown: His10-SUMO, N-terminal, cleaved

THD1 I398A = target: T2, THD1 I398A (UniProt P26039 1-405, I398A); assay: as above
T2 construct: talin-1 (TLN1) head domain, residues 1-405, I398A; source: E. coli (DE3) Rosetta 2, purified (IMAC, SEC); not shown: His10-SUMO, N-terminal, cleaved

[1] = target: T3, talin-1 head domain (THD1) (UniProt P26039 1-405); assay: as above
T3 construct: talin-1 (TLN1) head domain (THD), residues 1-405; murine TLN1 cDNA is named only for the cell lines; also called WT; source: E. coli (DE3) Rosetta 2, purified (IMAC, SEC); not shown: His10-SUMO, N-terminal, cleaved

THD1 Δ401-405 = target: T4, THD1 Δ401-405 (UniProt P26039 1-405, Δ401-405); assay: as above
T4 construct: source: E. coli (DE3) Rosetta 2, purified (IMAC, SEC); not shown: His10-SUMO, N-terminal, cleaved

THD1 K403E = target: T5, THD1 K403E (UniProt P26039 1-405, K403E); assay: as above
T5 construct: talin-1 (TLN1) head domain, residues 1-405, K403E; source: E. coli (DE3) Rosetta 2, purified (IMAC, SEC); not shown: His10-SUMO, N-terminal, cleaved

THD1 Y395A = target: T6, THD1 Y395A (UniProt P26039 1-405, Y395A); assay: as above
T6 construct: talin-1 (TLN1) head domain, residues 1-405, Y395A; source: E. coli (DE3) Rosetta 2, purified (IMAC, SEC); not shown: His10-SUMO, N-terminal, cleaved

THD1 K401A = target: T7, THD1 K401A (UniProt P26039 1-405, K401A); assay: as above
T7 construct: talin-1 (TLN1) head domain, residues 1-405, K401A; source: E. coli (DE3) Rosetta 2, purified (IMAC, SEC); not shown: His10-SUMO, N-terminal, cleaved

THD1 K402A = target: T8, THD1 K402A (UniProt P26039 1-405, K402A); assay: as above
T8 construct: talin-1 (TLN1) head domain, residues 1-405, K402A; source: E. coli (DE3) Rosetta 2, purified (IMAC, SEC); not shown: His10-SUMO, N-terminal, cleaved

THD1 I399A = target: T9, THD1 I399A (UniProt P26039 1-405, I399A); assay: as above
T9 construct: talin-1 (TLN1) head domain, residues 1-405, I399A; source: E. coli (DE3) Rosetta 2, purified (IMAC, SEC); not shown: His10-SUMO, N-terminal, cleaved

THD1 K403A = target: T10, THD1 K403A (UniProt P26039 1-405, K403A); assay: as above
T10 construct: talin-1 (TLN1) head domain, residues 1-405, K403A; source: E. coli (DE3) Rosetta 2, purified (IMAC, SEC); not shown: His10-SUMO, N-terminal, cleaved

[2] = target: T11, talin-2 head domain (THD2) (UniProt Q71LX4 1-408); assay: MST; unlabelled protein titrated to 50-200 nM ATTO 488-labelled β-CT peptide, no third protein; 20 mM Tris pH 7.5, 200 mM NaCl, 1 mM TCEP, 0.05% Tween-20; Kd of individual titrations (in S0002 mean and sd, n = 2)
T11 construct: talin-2 (TLN2) head domain (THD), residues 1-408; source: E. coli (DE3) Rosetta 2, purified (IMAC, SEC); not shown: His10-SUMO, N-terminal, cleaved

[3] = target: T3, talin-1 head domain (THD1); assay: as above
[4] = target: T3, talin-1 head domain (THD1); assay: MST; apparent; THD1 titrated to 488–β3-CT in the presence of 30-40 µM KIND2-Y13A; MST buffer
[5] = target: T3, talin-1 head domain (THD1); assay: MST; apparent; THD1 titrated to 488–β1-CT or 488–β3-CT in the presence of 500–1,100 µM KIND2-F0; MST buffer
[6] = target: T3, talin-1 head domain (THD1); assay: MST; apparent; THD1 titrated to 488–β1-CT or 488–β3-CT in the presence of 300–400 µM β-CT-binding-impaired KIND2 Q614A,W615A (QW/AA); MST buffer

T3 sequence (P26039 1-405): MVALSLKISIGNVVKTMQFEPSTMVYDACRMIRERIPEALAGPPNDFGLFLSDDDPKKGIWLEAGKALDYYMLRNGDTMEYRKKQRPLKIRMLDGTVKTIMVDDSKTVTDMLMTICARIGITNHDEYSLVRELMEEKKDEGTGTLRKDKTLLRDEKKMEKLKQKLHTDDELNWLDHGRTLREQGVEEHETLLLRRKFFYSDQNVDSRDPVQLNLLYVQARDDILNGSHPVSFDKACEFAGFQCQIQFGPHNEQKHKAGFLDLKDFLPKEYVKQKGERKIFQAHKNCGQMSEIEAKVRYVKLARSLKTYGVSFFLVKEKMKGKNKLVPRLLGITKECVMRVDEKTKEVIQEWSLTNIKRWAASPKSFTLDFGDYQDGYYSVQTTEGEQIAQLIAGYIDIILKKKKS
T11 sequence (Q71LX4 1-408): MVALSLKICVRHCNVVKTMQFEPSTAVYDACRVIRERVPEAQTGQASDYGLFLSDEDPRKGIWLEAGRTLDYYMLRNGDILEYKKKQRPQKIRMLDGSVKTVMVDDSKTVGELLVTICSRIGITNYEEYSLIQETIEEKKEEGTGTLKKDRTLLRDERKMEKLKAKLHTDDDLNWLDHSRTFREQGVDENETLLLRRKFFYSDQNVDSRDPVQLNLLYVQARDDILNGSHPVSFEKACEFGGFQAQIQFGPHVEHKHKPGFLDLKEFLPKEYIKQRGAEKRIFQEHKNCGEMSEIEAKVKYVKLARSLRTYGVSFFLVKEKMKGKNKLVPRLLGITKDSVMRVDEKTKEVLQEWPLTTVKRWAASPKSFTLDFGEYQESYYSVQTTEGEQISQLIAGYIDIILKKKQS
T8 sequence (P26039 1-405 K402A): as the sequence (P26039 1-405) above, with K402A counted along it
T9 sequence (P26039 1-405 I399A): as the sequence (P26039 1-405) above, with I399A counted along it
T1 sequence (P26039 1-405 L400A): as the sequence (P26039 1-405) above, with L400A counted along it
T4 sequence (P26039 1-400, stated change not applied): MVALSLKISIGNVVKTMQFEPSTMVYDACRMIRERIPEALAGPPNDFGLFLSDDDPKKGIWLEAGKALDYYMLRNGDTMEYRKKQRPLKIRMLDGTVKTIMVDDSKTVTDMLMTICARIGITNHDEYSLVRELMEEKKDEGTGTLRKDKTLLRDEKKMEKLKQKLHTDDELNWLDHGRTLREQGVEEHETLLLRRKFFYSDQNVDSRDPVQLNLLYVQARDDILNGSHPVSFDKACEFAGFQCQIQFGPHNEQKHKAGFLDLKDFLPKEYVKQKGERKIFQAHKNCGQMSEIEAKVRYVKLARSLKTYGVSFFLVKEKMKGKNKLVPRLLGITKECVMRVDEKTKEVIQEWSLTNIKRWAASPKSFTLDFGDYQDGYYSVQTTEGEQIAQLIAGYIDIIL
T10 sequence (P26039 1-405 K403A): as the sequence (P26039 1-405) above, with K403A counted along it
T5 sequence (P26039 1-405 K403E): as the sequence (P26039 1-405) above, with K403E counted along it
T2 sequence (P26039 1-405 I398A): as the sequence (P26039 1-405) above, with I398A counted along it
T7 sequence (P26039 1-405 K401A): as the sequence (P26039 1-405) above, with K401A counted along it
T6 sequence (P26039 1-405 Y395A): as the sequence (P26039 1-405) above, with Y395A counted along it

B1: ATTO 488-labeled integrin β3 cytoplasmic tail (488–β3-CT) (peptide, UniProt O54890 741-787, looked up)
peptide: {ATTO 488}-KLLITIHDRKEFAKFEEERARAKWDTANNPLYKEATSTFTNITYRGT
notes: integrin β3 cytoplasmic tail (β3-CT); source: synthetic peptide (MPIB Core Facility)
B1 was tested, and the Kd (THD1 L400A) was 180 µM, the Kd (THD1 I398A) was 155 µM and the Kd [1] was 95 µM. It also gave a Kd (THD1 Δ401-405) of 560 µM, a Kd (THD1 K403E) of 116 µM and a Kd (THD1 Y395A) of 42 µM. For the same binder, the Kd (THD1 K401A) was 148 µM, the Kd (THD1 K402A) was 117 µM and the Kd (THD1 I399A) was 91 µM. For the same binder, the Kd (THD1 K403A) was 114 µM, the Kd [2] was 31.7 µM and 32.1 µM and 49.1 µM and the Kd [3] was 81.6 µM. For the same binder, the Kd [4] was 283 µM and 241 µM and 188 µM and 159 µM, the Kd [5] was 105 µM and 87.6 µM and the Kd [6] was 183 µM and 137 µM and 88 µM.
